Experiments:
Assay in all cases: holdup assay
Parameters in all cases: key: below the threshold = too weak to quantify, mostly under pKd 3.1 to 4
[1] = molecular target: T1, HTRA3, P83110
T1 sequence (P83110 354-453, limits assumed, looked up): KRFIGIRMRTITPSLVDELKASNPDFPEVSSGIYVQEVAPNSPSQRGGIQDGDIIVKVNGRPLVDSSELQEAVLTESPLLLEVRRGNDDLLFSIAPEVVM

[2] = molecular target: T2, PDZD2_2, O15018
T2 sequence (O15018 329-429, limits assumed, looked up): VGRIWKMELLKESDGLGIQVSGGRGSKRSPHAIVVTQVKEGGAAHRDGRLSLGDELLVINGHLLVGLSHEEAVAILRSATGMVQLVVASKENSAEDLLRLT

[3] = molecular target: IL16_3, Q14005
[4] = molecular target: T3, SIPA1L2, Q9P2F8
T3 sequence (Q9P2F8 945-1036, limits assumed, looked up): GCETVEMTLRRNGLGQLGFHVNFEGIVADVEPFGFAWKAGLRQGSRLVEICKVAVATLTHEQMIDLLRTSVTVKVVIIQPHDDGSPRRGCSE

[5] = molecular target: T4, APBA2_2, Q99767
T4 sequence (Q99767 654-744, limits assumed, looked up): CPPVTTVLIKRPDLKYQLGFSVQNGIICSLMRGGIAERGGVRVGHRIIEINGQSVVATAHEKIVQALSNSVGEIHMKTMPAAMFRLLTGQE

[6] = molecular target: DLG2_3, Q15700
[7] = molecular target: NHERF4_1, Q86UT5-2
[8] = molecular target: HTRA1, Q92743
[9] = molecular target: T5, SHANK1, Q9Y566
T5 sequence (Q9Y566 658-767, limits assumed, looked up): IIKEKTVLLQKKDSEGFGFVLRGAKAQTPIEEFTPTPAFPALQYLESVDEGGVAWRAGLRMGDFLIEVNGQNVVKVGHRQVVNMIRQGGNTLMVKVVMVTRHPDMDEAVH

[10] = molecular target: TJP1_2, Q07157
[11] = molecular target: T6, MPDZ_10, O75970
T6 sequence (O75970 1624-1722, limits assumed, looked up): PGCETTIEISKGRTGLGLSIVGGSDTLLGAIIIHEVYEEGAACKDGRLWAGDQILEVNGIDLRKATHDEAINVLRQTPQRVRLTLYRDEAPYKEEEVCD

[12] = molecular target: T7, RADIL, Q96JH8
T7 sequence (Q96JH8 971-1071, limits assumed, looked up): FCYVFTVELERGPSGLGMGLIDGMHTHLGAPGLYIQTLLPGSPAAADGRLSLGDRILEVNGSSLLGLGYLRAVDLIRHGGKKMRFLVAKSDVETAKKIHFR

[13] = molecular target: T8, CARD11, Q9BXL7
T8 sequence (Q9BXL7 662-765, limits assumed, looked up): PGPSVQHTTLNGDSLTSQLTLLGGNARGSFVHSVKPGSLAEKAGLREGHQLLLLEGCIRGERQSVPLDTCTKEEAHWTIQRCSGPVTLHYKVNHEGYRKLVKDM

[14] = molecular target: T9, LIN7A, O14910
T9 sequence (O14910 103-200, limits assumed, looked up): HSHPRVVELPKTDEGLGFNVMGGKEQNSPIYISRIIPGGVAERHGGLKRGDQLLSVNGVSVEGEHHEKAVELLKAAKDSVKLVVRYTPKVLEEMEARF

[15] = molecular target: LIMK2, P53671
[16] = molecular target: ARHGEF12, Q9NZN5-2
[17] = molecular target: GRID2IP_2, A4D2P6
[18] = molecular target: Inadl_6, Q8NI35
[19] = molecular target: T10, GRIP1_4, Q9Y3R0
T10 sequence (Q9Y3R0 467-571, limits assumed, looked up): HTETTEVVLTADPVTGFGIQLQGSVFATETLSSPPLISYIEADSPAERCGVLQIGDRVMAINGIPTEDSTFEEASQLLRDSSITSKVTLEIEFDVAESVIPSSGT

[20] = molecular target: T11, PCLO, Q9Y6V0
T11 sequence (Q9Y6V0 4491-4600, limits assumed, looked up): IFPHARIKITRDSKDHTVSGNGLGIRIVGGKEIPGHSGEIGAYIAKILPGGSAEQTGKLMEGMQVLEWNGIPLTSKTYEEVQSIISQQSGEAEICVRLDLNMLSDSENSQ

[21] = molecular target: T12, SNTG1, Q9NSN8
T12 sequence (Q9NSN8 52-150, limits assumed, looked up): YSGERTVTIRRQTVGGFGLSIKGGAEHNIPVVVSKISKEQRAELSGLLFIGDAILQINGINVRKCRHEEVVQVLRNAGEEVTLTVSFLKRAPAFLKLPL

[22] = molecular target: T13, GRIP1_7, Q9Y3R0
T13 sequence (Q9Y3R0 999-1096, limits assumed, looked up): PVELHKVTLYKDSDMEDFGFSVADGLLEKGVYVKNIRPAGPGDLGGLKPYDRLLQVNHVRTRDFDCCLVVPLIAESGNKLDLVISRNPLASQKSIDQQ

[23] = molecular target: LAP2, Q96RT1
[24] = plain residues with an end cap or a label only (N-terminal biotin on a linker: ado-ado)
[25] = plain residues with an end cap or a label only (N-terminal biotin on a linker: ttds)
[26] = plain residues with an end cap or a label only (N-terminal biotin on a linker: ahx)

NHERF4_1, Q86UT5-2, sequence (Q86UT5 other isoform, or with tags, fused parts or gaps): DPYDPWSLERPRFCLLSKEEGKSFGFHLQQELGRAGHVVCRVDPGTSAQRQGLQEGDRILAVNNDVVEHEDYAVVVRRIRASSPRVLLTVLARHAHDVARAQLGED
LIMK2, P53671, sequence (P53671 143-248): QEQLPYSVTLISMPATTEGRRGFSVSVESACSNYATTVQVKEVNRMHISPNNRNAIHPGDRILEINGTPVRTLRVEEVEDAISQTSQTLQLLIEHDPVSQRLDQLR
HTRA1, Q92743, sequence (Q92743 360-477): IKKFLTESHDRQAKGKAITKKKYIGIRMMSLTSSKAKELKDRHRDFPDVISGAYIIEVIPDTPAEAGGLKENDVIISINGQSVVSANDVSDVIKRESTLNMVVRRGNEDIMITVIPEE
GRID2IP_2, A4D2P6, sequence (A4D2P6 272-370): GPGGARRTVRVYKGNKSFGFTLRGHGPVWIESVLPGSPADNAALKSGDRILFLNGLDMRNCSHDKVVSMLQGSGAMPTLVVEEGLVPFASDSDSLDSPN
IL16_3, Q14005, sequence (Q14005 1107-1207): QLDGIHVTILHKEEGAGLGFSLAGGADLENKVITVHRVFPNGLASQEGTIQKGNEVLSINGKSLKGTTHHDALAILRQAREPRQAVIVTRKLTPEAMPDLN
Inadl_6, Q8NI35, sequence (Q8NI35 1058-1167): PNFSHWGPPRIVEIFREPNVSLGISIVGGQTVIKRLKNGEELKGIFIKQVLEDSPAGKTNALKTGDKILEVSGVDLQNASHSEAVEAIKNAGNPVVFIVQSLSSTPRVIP
TJP1_2, Q07157, sequence (Q07157 181-274): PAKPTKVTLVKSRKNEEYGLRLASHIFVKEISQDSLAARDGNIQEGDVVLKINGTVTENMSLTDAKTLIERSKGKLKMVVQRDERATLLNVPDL
LAP2, Q96RT1, sequence (Q96RT1 other isoform, or with tags, fused parts or gaps): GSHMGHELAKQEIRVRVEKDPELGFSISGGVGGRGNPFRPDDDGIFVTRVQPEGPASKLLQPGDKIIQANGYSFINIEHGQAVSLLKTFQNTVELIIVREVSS
ARHGEF12, Q9NZN5-2, sequence (Q9NZN5 other isoform, or with tags, fused parts or gaps): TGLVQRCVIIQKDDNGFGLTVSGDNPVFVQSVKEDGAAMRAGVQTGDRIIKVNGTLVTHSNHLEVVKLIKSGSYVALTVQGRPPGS

Binder: IGHEDLETAV [DGKI, O75912]
- pKd [1, 24]: below the threshold
- pKd [2, 24]: 5.25
- pKd [3, 24]: below the threshold
- pKd [4, 24]: below the threshold
- pKd [5, 24]: below the threshold
- pKd [6, 24]: 3.96
- pKd [7, 24]: below the threshold
- pKd [8, 24]: 3.65
- pKd [9, 24]: 4.41
- pKd [10, 24]: below the threshold
- pKd [11, 24]: below the threshold
- pKd [12, 24]: below the threshold
- pKd [13, 24]: below the threshold
- pKd [14, 24]: 4.07
- pKd [15, 24]: below the threshold
- pKd [16, 24]: 3.49
- pKd [17, 24]: 3.79
- pKd [18, 24]: 4.1
- pKd [19, 24]: below the threshold
- pKd [20, 24]: below the threshold
- pKd [21, 24]: 5.43
- pKd [22, 24]: below the threshold
- pKd [23, 24]: 4.56

Binder: DLDEEEDTHL [PODXL, O00592]
- pKd [1, 25]: below the threshold
- pKd [2, 25]: 4
- pKd [3, 25]: below the threshold
- pKd [4, 25]: below the threshold
- pKd [5, 25]: below the threshold
- pKd [6, 25]: below the threshold
- pKd [7, 25]: below the threshold
- pKd [8, 25]: 3.73
- pKd [9, 25]: 4.95
- pKd [10, 25]: below the threshold
- pKd [11, 25]: below the threshold
- pKd [12, 25]: below the threshold
- pKd [13, 25]: below the threshold
- pKd [14, 25]: below the threshold
- pKd [15, 25]: below the threshold
- pKd [16, 25]: below the threshold
- pKd [17, 25]: below the threshold
- pKd [18, 25]: below the threshold
- pKd [19, 25]: below the threshold
- pKd [20, 25]: below the threshold
- pKd [21, 25]: 3.49
- pKd [22, 25]: below the threshold
- pKd [23, 25]: below the threshold

Binder: PSRDRKETSI [RALBP1, Q15311]
- pKd [1, 25]: below the threshold
- pKd [2, 25]: 3.75
- pKd [3, 25]: below the threshold
- pKd [4, 25]: below the threshold
- pKd [5, 25]: below the threshold
- pKd [6, 25]: 4.64
- pKd [7, 25]: 3.36
- pKd [8, 25]: below the threshold
- pKd [9, 25]: below the threshold
- pKd [10, 25]: below the threshold
- pKd [11, 25]: below the threshold
- pKd [12, 25]: below the threshold
- pKd [13, 25]: below the threshold
- pKd [14, 25]: below the threshold
- pKd [15, 25]: below the threshold
- pKd [16, 25]: 4.06
- pKd [17, 25]: 3.69
- pKd [18, 25]: below the threshold
- pKd [19, 25]: below the threshold
- pKd [20, 25]: below the threshold
- pKd [21, 25]: 3.76
- pKd [22, 25]: 3.49
- pKd [23, 25]: 3.37

Binder: SQDPKKPSRV [CBY2, Q8NA61]
- pKd [1, 24]: below the threshold
- pKd [2, 24]: below the threshold
- pKd [3, 24]: below the threshold
- pKd [4, 24]: below the threshold
- pKd [5, 24]: below the threshold
- pKd [6, 24]: below the threshold
- pKd [7, 24]: below the threshold
- pKd [8, 24]: below the threshold
- pKd [9, 24]: below the threshold
- pKd [10, 24]: below the threshold
- pKd [11, 24]: 3.7
- pKd [12, 24]: 3.61
- pKd [13, 24]: below the threshold
- pKd [14, 24]: below the threshold
- pKd [15, 24]: below the threshold
- pKd [16, 24]: below the threshold
- pKd [17, 24]: below the threshold
- pKd [18, 24]: below the threshold
- pKd [19, 24]: below the threshold
- pKd [20, 24]: below the threshold
- pKd [21, 24]: below the threshold
- pKd [22, 24]: below the threshold
- pKd [23, 24]: below the threshold

Binder: HSATSVHTSV [MTMR1, Q13613]
- pKd [1, 26]: below the threshold
- pKd [2, 26]: 4.23
- pKd [3, 26]: below the threshold
- pKd [4, 26]: below the threshold
- pKd [5, 26]: below the threshold
- pKd [6, 26]: 4.44
- pKd [7, 26]: below the threshold
- pKd [8, 26]: 3.51
- pKd [9, 26]: below the threshold
- pKd [10, 26]: below the threshold
- pKd [11, 26]: 3.81
- pKd [12, 26]: below the threshold
- pKd [13, 26]: below the threshold
- pKd [14, 26]: below the threshold
- pKd [15, 26]: below the threshold
- pKd [16, 26]: below the threshold
- pKd [17, 26]: below the threshold
- pKd [18, 26]: below the threshold
- pKd [19, 26]: below the threshold
- pKd [20, 26]: below the threshold
- pKd [21, 26]: below the threshold
- pKd [22, 26]: below the threshold
- pKd [23, 26]: below the threshold

Binder: VNENQKEYFF [CNTNAP4, Q9C0A0]
- pKd [1, 26]: below the threshold
- pKd [2, 26]: below the threshold
- pKd [3, 26]: below the threshold
- pKd [4, 26]: below the threshold
- pKd [5, 26]: below the threshold
- pKd [6, 26]: below the threshold
- pKd [7, 26]: 3.51
- pKd [8, 26]: 4.72
- pKd [9, 26]: below the threshold
- pKd [10, 26]: below the threshold
- pKd [11, 26]: below the threshold
- pKd [12, 26]: 4.3
- pKd [13, 26]: below the threshold
- pKd [14, 26]: below the threshold
- pKd [15, 26]: below the threshold
- pKd [16, 26]: below the threshold
- pKd [17, 26]: below the threshold
- pKd [18, 26]: 3.86
- pKd [19, 26]: below the threshold
- pKd [20, 26]: below the threshold
- pKd [21, 26]: below the threshold
- pKd [22, 26]: 4.14
- pKd [23, 26]: below the threshold

— publication PMC9482650, “Quantitative fragmentomics allow affinity mapping of interactomes” (Nature Communications, 2022)
